Assays:
[1] = pNPP (p-nitrophenyl phosphate) assay of phosphatase activity; type: biochemical; conditions: pH 5.0, 10 mM pNPP, 30° C., 10 minutes
Experimental: The GST-NDRG2 protein (10 ng to 250 ng) was added to a reaction solution (pH 5.0) consisting of 100 mM sodium acetate, 0.8 mM DTT, and 10 mM pNPP, and the mixture was allowed to react at 30° C. for 10 minutes. After addition of 500 μl of 5 M […], the reaction was stopped and OD 410 nm of the absorption wavelength for pNP (p-Nitrophenol) was measured. A standard curve was prepared at a concentration of 0.2 to 1.6 nmol of pNP, and an enzyme activity was determined by converting the absorbance into the concentration of pNP.

PTEN = molecular target: T1, PTEN (Homo sapiens, UniProt P60484); experiment: In vitro dephosphorylation of FLAG-PTEN purified from ATL cell line Su9T-01, Western blot; type: biochemical; conditions: 10 ng/ml FLAG-PTEN, 30° C., 30 minutes; phosphorylation-specific anti-PTEN antibodies
T1 construct: made in house; host or cells: ATL cell line Su9T-01, transfected with PTEN/pCMV26; purified on anti-FLAG M2 gel
Experimental: ATL cell line Su9T-01 of 1×10^7 cells were transfected with 20 μg of PTEN/pCMV26 expression vector by electroporation. On day 2 after the transfection, the cells were collected and 500 μl of RIPA buffer solution was added to prepare a cell extract solution. […] The reaction solution was washed with PBS buffer solution, and eluted with 3×FLAG peptide (100 μg/ml).
A reaction solution composed of 25 ng of GST or GST-NDRG2 or one unit of bacterial alkaline phosphatase (BAP) (TAKARA) was reacted with a reaction solution consisting of 20 mM magnesium acetate, 300 μg/mL BSA, 30 μM EDTA, 0.03% β-mercaptoethanol, and 10 ng/ml FLAG-PTEN at 30° C. for 30 minutes. Phosphorylation state of PTEN was analyzed by the Western blot method using anti-PTEN antibodies specific to each phosphorylation.

NDRG2 = molecular target: T2, NDRG2 (Homo sapiens, UniProt Q9UN36); conditions: read-out: IC50 for enzymatic activity of NDRG2; concentration of NDRG2 protein 25 ng/ul
T2 sequence (Q9UN36 1-357 isoform Q9UN36-2): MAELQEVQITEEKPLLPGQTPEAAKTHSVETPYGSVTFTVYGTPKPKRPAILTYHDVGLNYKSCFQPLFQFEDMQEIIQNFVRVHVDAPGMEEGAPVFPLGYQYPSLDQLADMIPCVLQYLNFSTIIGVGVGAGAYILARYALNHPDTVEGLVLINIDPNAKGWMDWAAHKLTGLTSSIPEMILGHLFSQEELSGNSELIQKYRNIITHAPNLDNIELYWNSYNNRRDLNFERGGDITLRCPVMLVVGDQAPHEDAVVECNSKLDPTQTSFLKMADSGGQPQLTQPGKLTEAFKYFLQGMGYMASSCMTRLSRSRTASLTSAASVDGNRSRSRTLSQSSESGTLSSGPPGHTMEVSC
Experimental: The GST-NDRG2 protein (10 ng to 250 ng) was added to a reaction solution (pH 5.0) consisting of 100 mM sodium acetate, 0.8 mM DTT, and 10 mM pNPP, and the mixture was allowed to react at 30° C. for 10 minutes. After addition of 500 μl of 5 M NaGH, the reaction was stopped and OD 410 nm of the absorption wavelength for pNP (p-Nitrophenol) was measured. A standard curve was prepared at a concentration of 0.2 to 1.6 nmol of pNP, and an enzyme activity was determined by converting the absorbance into the concentration of pNP.

T1 sequence (P60484 whole entry): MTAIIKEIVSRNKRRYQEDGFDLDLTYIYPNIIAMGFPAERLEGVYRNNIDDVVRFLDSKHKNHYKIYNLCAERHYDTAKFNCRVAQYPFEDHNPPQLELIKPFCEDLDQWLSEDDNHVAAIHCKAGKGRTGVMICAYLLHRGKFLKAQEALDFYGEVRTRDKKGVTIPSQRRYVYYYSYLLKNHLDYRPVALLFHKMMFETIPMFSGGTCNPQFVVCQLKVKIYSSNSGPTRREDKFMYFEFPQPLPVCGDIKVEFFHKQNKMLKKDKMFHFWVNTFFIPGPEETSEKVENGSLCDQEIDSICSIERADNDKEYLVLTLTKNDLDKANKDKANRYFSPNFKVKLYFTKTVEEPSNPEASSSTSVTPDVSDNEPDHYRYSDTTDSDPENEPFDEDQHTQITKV

Compound | production of pNP (phosphatase activity) [1] | dephosphorylation of PTEN (PTEN) | IC50 (NDRG2) [nM]
GST: Glutathione S-Transferase protein, negative control | not observed | not recognized | 
[F-].[Na+] [sodium fluoride] |  |  | 383
BAP: bacterial alkaline phosphatase (TAKARA), positive control |  | dephosphorylation effects were recognized | 
